How the values were obtained:
human ORAI1 (65-301) = biological target: T1, human ORAI1 (65-301) (Homo sapiens, UniProt Q96D31, E106Q/N223A); experiment: Pichia membrane flotation assay, membranes containing ORAI1 (65-301); type: binding; conditions: sucrose gradient, Western blotting
T1 construct: human ORAI1 (65-301) with an N-terminal FLAG tag; made in house; host or cells: Pichia pastoris GS115 (microsomal membranes)
Method: A membrane flotation assay was used to evaluate binding of these recombinant STIM 1 proteins to ORAI1. For these experiments ORAI1 (65-301) was expressed, an N-terminally truncated ORAI1 protein that forms functional Ca^2+ channels in mammalian cells (Li, Z., et al., J Biol Chem 282, 29448-29456 (2007)), in the yeast Pichia pastoris. Microsomal membranes were prepared from P pastoris expressing ORAI1 (65-301), layered at the bottom of a discontinuous sucrose gradient, and centrifuged. After centrifugation, the recombinant ORAI 1 was recovered near the top of the gradient in the fraction visually identified as containing membranes (FIG. 2A), as expected for an integral membrane protein.
STIM 1, ORAI 1, and D3 cpV/D4 cpV expression constructs were engineered as described herein. Recombinant STIM 1 fragments were expressed in E coli, purified, and characterized by CD spectroscopy and SEC-MALLS. Binding of STIM 1 fragments to ORAI1 channels in their normal bilayer environment was assessed in a flotation assay, using microsomal membranes prepared from the yeast P pastoris and containing human ORAI1 (65-301). Binding of STIM1 fragments to recombinant ORAI^CT was assessed in a pulldown assay using GST-tagged ORAI1^CT.
P pastoris strain GS115 was transformed with SalI-linearized pPIC3.5K-ORAI1 by electroporation and selected on plates lacking histidine. H is transformants were further grown in the presence of 0.25-4 mg/mL G418 to select for yeast that had integrated multiple copies of pPIC3.5K into the genome. Selected colonies capable of growth on 0.5-4 mg/mL G418 were grown in small-scale culture, induced with methanol as detailed below, and their level of ORAI expression determined by Western blotting for the FLAG tag. P pastoris transformants were grown in minimal dextrose medium lacking histidine and induced with 0.5% methanol for 6-18 h. Cells were pelleted at 3,000×g for 15 min at 4° C. and resuspended in breaking buffer containing 50 mM sodium phosphate, 1 mM TCEP, 1 mM EDTA, 5% glycerol and complete protease inhibitor cocktail (Roche). […]

CD thermal unfolding = type: physicochemical; conditions: CD signal at 222 nm, 20 μM protein, pH 7.5
Method: CD spectra of STIM 1^CT fragments were recorded in a Jasco-810 spectropolarimeter at 25° C. using a 1-mm path length quartz cell with the protein concentration at 20 μM in 10 mM Tris-HCl, 150 mM KCl, 1 mM DTT at pH 7.5. All spectra were obtained as the average of at least ten scans with a scan rate of 50 nm/min. The ellipticity was measured from 190 to 260 nm and converted to mean residue molar ellipticity (deg cm^2 dmol^−1 res^−1). The calculation of secondary structure elements was performed by using DICHROWEB, an online server for protein secondary structure analyses (Whitmore, L. & Wallace, B. A. Nucleic Acids Res 32, W668-W673 (2004)). Thermal unfolding measurements were performed using a 1 mm quartz cell with a protein concentration of 20 μM in the same buffer. To obtain the thermal transition point, the signal changes at 222 nm were fitted using the equation: ΔS=ΔSmax/[…]), where ΔS and ΔSmax are the signal changes at each data point and at the final data point, Tm and T are the transition temperature and experimental temperature, respectively, and k represents the transition rate.

T1 sequence (Q96D31 65-301 E106Q/N223A): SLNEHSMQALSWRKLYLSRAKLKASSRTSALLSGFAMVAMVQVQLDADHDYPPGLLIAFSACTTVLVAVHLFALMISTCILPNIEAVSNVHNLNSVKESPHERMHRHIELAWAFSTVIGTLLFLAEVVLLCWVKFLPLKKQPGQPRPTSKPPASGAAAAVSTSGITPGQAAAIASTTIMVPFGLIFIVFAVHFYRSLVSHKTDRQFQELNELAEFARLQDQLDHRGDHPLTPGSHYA

Substance	binding to ORAI1 in membrane flotation (human ORAI1 (65-301))	Tm (thermal unfolding) (CD thermal unfolding) [°C]
STIM1^CT: cytoplasmic region of STIM1, mouse residues 233-685, His-tagged recombinant protein expressed in E coli	rose with the membranes into the upper part of the gradient	47.0±0.3
STIM1 (233-498): truncated mouse STIM1 cytoplasmic fragment, residues 233-498, His-tagged recombinant protein	clearly bound ORAI	48.5±0.4
STIM1 (233-463): truncated mouse STIM1 cytoplasmic fragment, residues 233-463, His-tagged recombinant protein	did not bind detectably	43.8±0.2
